Laboratory results taken from US20240343803A1 (SHANDONG SIMCERE BIOPHARMACEUTICAL, published 2024).
Positions count from the first letter of the chain named.

T1: full-length human TIGIT on CHO-K1 cells (CHO-K1 human TIGIT) (human, UniProt Q495A1 22-244)
T1 construct: NCBI XP_024309156.1; entry includes the signal peptide; also called high expression strain 1D2; medium expression strain 2D10
T1 sequence: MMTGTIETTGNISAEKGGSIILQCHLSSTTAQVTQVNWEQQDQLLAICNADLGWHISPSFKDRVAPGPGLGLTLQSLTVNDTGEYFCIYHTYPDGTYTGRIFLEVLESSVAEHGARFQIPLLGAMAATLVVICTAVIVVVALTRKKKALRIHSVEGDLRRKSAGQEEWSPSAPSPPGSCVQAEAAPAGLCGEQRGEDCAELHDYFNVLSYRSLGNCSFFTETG

T2: TIGIT on human PBMCs stimulated by SEA (human, UniProt Q495A1 22-244)
T2 construct: whole, on cells
T2 sequence (looked up): T1 sequence

B1: TIGIT-002-H4L3 (antibody, V domains shown)
VH: EVQLQESGPGLVKPSETLSLTCAVSGYSITSDSWNWIRQPPGKKLEYIGYISYSGNTYYNPSLKSRVTISRDTSKNQFSLKLSSVTAADTAVYYCARLDFSNYGGAVDYWGQGTTVTVSS
VL: DIVMTQSPDSLAVSLGERATINCKASQNVRTAVAWYQQKPGQSPKLMIYSASYRYTGVPDRFSGSGSGTDFTLTISSLQAEDVAVYYCQQYYTTPWTFGGGTKVEIK
notes: humanized; 002.VH4 with 002.VL3
B2: TIGIT-005-H2L1d (antibody, V domains shown)
VH: EVQLVQSGAEVKKPGASVKVSCKASGYAFTNYLIEWVRQAPGQRLEWMGVINPGSGGTNYKEKFKGRVTITADKSSSTAYMELSSLRSEDTAVYYCARGEYFFFDYWGQGTTVTVSS
VL: B1 VL with N28H, R30S, T31N, Q38H, M47L, Y91H, T93N, W96H
notes: humanized; 005.VH2 with 005.VL1d

Tests used:
[1] = biological target: T3, full-length cynomolgus monkey TIGIT on CHO-K1 cells (CHO-K1 cynomolgus monkey TIGIT) (cynomolgus monkey); assay: FACS, CHO-K1 cynomolgus monkey TIGIT cells
T3 construct: NCBI XP_015300911.1; also called cynomolgus monkey TIGIT cells
Description: (§1) The collected cells were washed once with PBS (Hyclone, Cat NO. SH30256), resuspended to 2×10⁵/50 μL with 1% BSA-PBS. The antibodies were diluted to 80 nM with 1% BSA-PBS (diluted by 3-fold serial dilution for 12 concentration points). The 50 μL cells were then mixed with 50 μL diluted antibodies, and then incubated at 4° C. for 60 minutes. […] After washing twice with PBS, the cell samples were resuspended with 1% BSA-PBS, 100 μL/well and then analyzed by flow cytometry (BD, Canto II).

[2] = biological target: T1, full-length human TIGIT on CHO-K1 cells …; assay: competition FACS; blocked: Bio-CD155-His binding to CHO-K1 human TIGIT cells
Description: The collected cells were washed once with PBS (Hyclone, SH30256), resuspended to 2×10⁵/40 μL with 1% BSA-PBS. The antibodies were diluted to 210 nM with 1% BSA-PBS (diluted by 3-fold serial dilution for 12 concentration points). […] The 40 μL cells were then mixed with 40 μL diluted antibodies and 40 μL diluted Bio-CD155-His, and then incubated at 4° C. for 60 minutes. The cells were washed twice with PBS, resuspended with APC labeled streptavidin (dilution ratio 1:1700, Biolegend, 405243), 100 μL/well, and incubated at 4° C. for 40 minutes. The cell samples were washed twice with PBS, resuspended with 1% BSA-PBS (100 μL/well) and then analyzed by flow cytometry (BD, Canto II).

[3] = biological target: T2, TIGIT on human PBMCs stimulated by SEA; assay: FACS, SEA-stimulated human PBMCs
Description: The fresh human PBMCs (AllCells, PB004-C) were adjusted to a density of 5×10⁵/mL, added with SEA (Toxin Technology, Inc., AT101) to 100 ng/mL, and cultured at 37° C. with 5% CO₂ for 3 days. The cells were collected 3 days later, washed once with PBS (Hyclone, SH30256), added with Fc Block (BD, 564220) and then incubated at 4° C. for 10 minutes. After washing twice with PBS, the PBMCs were resuspended to 2×10⁵/50 μL with 1% BSA-PBS. The humanized antibodies were diluted to 80 nM with 1% BSA-PBS (diluted by 3-fold serial dilution for 12 concentration points). The 50 μL cells were then mixed with 50 μL diluted antibodies, and then incubated at 4° C. for 60 minutes. […] After washing twice with PBS, the cell samples were resuspended with 1% BSA-PBS, 100 µL/well, and then analyzed by flow cytometry (BD, Canto II).

[4] = biological target: T1, full-length human TIGIT on CHO-K1 cells …; assay: FACS, CHO-K1 human TIGIT low expression strain
Description: as §1

[5] = biological target: T1, full-length human TIGIT on CHO-K1 cells …; assay: FACS, CHO-K1 human TIGIT high expression strain
Description: as §1

[6] = biological target: T1, full-length human TIGIT on CHO-K1 cells …; assay: FACS, CHO-K1 human TIGIT medium expression strain
Description: as §1

T3 sequence (chain, as listed by the source limits assumed): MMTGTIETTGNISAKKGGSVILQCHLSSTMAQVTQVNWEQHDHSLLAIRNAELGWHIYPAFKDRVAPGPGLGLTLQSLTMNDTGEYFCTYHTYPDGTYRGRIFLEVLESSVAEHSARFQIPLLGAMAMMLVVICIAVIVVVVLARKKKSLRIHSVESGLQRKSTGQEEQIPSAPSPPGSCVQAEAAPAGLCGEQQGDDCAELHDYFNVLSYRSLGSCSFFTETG

Binder | EC50 (read off the curve) [1] | IC50 (read off the curve) [2] | EC50 (read off the curve) [3] | EC50 (read off the curve) [4] | EC50 (read off the curve) [5] | EC50 (read off the curve) [6]
B1 | ~0.4 nM | ~0.09 nM | ~0.06 nM | ~0.1 nM | ~0.2 nM | ~0.1 nM
B2 | ~0.4 nM | ~0.09 nM | ~0.09 nM | ~0.09 nM | ~0.2 nM | ~0.1 nM
